Patent US20240261333A1, “NOVEL TARGETS FOR ENHANCING ANTI-TUMOR IMMUNITY” (THE BROAD INSTITUTE, INC., priority 2021, published 2024)

How the values were obtained:
KPNB1 (human) [1] = target: KPNB1 (human) (UniProt Q14974); experiment: IgG control IP from lysate of N-FLAG B3GNT2 cells, mass spectrometry
ERP44 (human) [2] = target: ERP44 (human) (UniProt Q9BS26); experiment: as above
TRAFD1 (human) [3] = target: TRAFD1 (human) (UniProt O14545); experiment: as above
IPO7 (human) [4] = target: IPO7 (human) (UniProt O95373); experiment: as above
RCN1 (human) = RCN1 (human) (UniProt Q15293); experiment: as above
ATAD3A (human) [5] = target: ATAD3A (human) (UniProt Q9NVI7); experiment: as above
PGAM5 (human) = PGAM5 (human) (UniProt Q96HS1); experiment: as above
LARP4 (human) = LARP4 (human) (UniProt Q71RC2); experiment: as above
AIFM1 (human) [6] = target: AIFM1 (human) (UniProt O95831); experiment: as above
PDIA4 (human) = PDIA4 (human) (UniProt P13667); experiment: as above
PSMB6 (human) = PSMB6 (human) (UniProt P28072); experiment: as above
TUBA1C (human) = TUBA1C (human) (UniProt Q9BQE3); experiment: as above
PSMB4 (human) = PSMB4 (human) (UniProt P28070); experiment: as above
HDGFL2 (human) = HDGFL2 (human) (UniProt Q7Z4V5); experiment: as above
KTN1 (human) [7] = target: KTN1 (human) (UniProt Q86UP2); experiment: as above
ACSL3 (human) [8] = target: ACSL3 (human) (UniProt O95573); experiment: as above
ZRANB2 (human) = ZRANB2 (human) (UniProt O95218); experiment: as above
UBTF (human) [9] = target: UBTF (human) (UniProt P17480); experiment: as above
RPL15 (human) [10] = target: RPL15 (human) (UniProt P61313); experiment: as above
NTPCR (human) = NTPCR (human) (UniProt Q9BSD7); experiment: as above
KPNB1 (human) [11] = target: KPNB1 (human) (UniProt Q14974); experiment: IgG control IP from lysate of C-FLAG B3GNT2 cells, mass spectrometry
ERP44 (human) [12] = target: ERP44 (human) (UniProt Q9BS26); experiment: as above
TRAFD1 (human) [13] = target: TRAFD1 (human) (UniProt O14545); experiment: as above
IPO7 (human) [14] = target: IPO7 (human) (UniProt O95373); experiment: as above
SLC25A22 (human) = SLC25A22 (human) (UniProt Q9H936); experiment: as above
H1FX (human) = H1FX (human) (UniProt Q92522); experiment: as above
ATAD3A (human) [15] = target: ATAD3A (human) (UniProt Q9NVI7); experiment: as above
FBXO6 (human) = FBXO6 (human) (UniProt Q9NRD1); experiment: as above
AIFM1 (human) [16] = target: AIFM1 (human) (UniProt O95831); experiment: as above
EEF2 (human) = EEF2 (human) (UniProt P13639); experiment: as above
ABCD1 (human) = ABCD1 (human) (UniProt P33897); experiment: as above
KTN1 (human) [17] = target: KTN1 (human) (UniProt Q86UP2); experiment: as above
ACSL3 (human) [18] = target: ACSL3 (human) (UniProt O95573); experiment: as above
IFI16 (human) = IFI16 (human) (UniProt Q16666); experiment: as above
LDHA (human) = LDHA (human) (UniProt P00338); experiment: as above
PSMC2 (human) = PSMC2 (human) (UniProt P35998); experiment: as above
RPS6 (human) = RPS6 (human) (UniProt P62753); experiment: as above
UBTF (human) [19] = target: UBTF (human) (UniProt P17480); experiment: as above
RPL15 (human) [20] = target: RPL15 (human) (UniProt P61313); experiment: as above

Chain of IPO7 (human) (O95373 whole entry): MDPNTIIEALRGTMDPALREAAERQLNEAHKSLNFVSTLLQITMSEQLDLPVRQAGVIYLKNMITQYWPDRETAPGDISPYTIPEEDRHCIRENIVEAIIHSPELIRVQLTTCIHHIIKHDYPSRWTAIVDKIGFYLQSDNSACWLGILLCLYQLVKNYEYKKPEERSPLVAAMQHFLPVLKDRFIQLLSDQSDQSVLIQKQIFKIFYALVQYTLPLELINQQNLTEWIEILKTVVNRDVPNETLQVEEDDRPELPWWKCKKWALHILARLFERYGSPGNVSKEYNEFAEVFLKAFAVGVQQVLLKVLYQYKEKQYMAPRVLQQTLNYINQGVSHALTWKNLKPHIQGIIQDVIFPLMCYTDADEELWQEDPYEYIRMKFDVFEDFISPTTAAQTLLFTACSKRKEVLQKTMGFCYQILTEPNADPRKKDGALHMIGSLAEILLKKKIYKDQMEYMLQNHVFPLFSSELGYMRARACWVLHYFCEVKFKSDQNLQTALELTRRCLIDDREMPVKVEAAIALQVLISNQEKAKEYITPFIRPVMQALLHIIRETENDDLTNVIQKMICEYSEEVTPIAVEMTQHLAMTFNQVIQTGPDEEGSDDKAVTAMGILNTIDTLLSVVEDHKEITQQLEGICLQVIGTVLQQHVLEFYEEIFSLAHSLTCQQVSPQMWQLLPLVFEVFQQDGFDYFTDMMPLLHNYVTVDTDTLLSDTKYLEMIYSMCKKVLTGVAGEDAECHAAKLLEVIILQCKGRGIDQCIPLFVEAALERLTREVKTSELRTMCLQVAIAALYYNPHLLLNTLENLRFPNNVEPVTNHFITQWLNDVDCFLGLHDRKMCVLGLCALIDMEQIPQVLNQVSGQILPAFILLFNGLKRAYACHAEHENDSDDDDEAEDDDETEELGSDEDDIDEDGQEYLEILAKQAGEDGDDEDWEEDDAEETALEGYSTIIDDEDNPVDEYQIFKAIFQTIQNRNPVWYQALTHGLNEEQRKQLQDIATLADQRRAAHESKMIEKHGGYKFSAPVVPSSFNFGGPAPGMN
Chain of AIFM1 (human) (O95831 55-613 limits assumed): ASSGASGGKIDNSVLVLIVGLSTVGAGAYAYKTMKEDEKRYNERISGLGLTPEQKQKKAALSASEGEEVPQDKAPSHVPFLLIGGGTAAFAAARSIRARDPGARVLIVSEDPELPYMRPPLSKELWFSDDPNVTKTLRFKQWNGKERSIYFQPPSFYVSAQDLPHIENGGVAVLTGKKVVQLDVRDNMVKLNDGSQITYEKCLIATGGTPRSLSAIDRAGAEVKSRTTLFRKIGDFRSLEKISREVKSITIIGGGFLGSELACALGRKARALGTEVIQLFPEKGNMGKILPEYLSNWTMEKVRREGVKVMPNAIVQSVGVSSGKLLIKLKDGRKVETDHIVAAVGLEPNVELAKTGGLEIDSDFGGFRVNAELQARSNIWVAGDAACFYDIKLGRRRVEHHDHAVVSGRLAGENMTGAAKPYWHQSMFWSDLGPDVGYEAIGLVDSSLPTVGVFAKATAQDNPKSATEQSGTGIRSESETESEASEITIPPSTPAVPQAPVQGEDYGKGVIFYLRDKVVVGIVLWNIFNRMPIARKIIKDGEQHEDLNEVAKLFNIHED
Chain of KPNB1 (human) (Q14974 whole entry): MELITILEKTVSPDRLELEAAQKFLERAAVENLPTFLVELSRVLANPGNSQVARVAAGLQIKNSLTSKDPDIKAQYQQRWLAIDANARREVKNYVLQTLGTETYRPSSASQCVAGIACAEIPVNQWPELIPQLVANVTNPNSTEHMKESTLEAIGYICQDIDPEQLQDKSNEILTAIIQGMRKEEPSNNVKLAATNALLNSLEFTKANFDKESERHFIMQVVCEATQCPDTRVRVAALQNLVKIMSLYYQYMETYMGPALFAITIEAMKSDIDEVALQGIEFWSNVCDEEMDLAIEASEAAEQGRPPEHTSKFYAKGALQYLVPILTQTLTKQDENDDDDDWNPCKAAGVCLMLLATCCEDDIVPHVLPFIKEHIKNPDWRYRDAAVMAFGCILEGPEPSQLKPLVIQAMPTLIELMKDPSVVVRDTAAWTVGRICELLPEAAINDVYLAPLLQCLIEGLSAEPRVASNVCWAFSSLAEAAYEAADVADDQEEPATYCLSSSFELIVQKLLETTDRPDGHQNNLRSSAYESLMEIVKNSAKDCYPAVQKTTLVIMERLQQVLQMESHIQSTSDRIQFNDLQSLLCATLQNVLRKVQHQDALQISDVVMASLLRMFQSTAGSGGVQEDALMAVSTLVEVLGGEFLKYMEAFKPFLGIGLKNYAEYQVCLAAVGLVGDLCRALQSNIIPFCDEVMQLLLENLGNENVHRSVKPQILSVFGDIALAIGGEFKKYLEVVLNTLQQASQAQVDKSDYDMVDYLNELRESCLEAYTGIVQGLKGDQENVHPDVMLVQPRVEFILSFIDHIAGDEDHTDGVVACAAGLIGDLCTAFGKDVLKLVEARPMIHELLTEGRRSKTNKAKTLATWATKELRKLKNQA
Chain of UBTF (human) (P17480 other isoform, or with tags, fused parts or gaps limits assumed): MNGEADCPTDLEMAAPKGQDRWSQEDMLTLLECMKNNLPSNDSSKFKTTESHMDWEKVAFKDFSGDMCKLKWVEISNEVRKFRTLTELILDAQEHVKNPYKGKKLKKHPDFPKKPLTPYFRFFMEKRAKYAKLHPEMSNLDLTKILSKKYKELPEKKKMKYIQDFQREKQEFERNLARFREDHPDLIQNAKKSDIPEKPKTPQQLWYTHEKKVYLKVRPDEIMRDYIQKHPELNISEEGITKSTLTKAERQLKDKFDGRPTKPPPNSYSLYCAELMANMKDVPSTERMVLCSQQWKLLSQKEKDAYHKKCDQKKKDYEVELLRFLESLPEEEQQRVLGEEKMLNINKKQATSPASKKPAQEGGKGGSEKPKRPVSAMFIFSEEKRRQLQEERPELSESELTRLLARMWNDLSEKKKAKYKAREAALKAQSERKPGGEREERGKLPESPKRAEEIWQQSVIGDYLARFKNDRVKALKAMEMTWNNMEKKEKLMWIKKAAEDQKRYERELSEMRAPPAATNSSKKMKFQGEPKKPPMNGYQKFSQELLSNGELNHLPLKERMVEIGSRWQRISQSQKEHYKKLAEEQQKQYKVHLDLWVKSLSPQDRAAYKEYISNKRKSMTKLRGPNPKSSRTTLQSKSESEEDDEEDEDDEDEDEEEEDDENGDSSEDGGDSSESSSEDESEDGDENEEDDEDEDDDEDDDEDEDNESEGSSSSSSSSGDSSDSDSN
Chain of ATAD3A (human) (Q9NVI7 2-586 limits assumed): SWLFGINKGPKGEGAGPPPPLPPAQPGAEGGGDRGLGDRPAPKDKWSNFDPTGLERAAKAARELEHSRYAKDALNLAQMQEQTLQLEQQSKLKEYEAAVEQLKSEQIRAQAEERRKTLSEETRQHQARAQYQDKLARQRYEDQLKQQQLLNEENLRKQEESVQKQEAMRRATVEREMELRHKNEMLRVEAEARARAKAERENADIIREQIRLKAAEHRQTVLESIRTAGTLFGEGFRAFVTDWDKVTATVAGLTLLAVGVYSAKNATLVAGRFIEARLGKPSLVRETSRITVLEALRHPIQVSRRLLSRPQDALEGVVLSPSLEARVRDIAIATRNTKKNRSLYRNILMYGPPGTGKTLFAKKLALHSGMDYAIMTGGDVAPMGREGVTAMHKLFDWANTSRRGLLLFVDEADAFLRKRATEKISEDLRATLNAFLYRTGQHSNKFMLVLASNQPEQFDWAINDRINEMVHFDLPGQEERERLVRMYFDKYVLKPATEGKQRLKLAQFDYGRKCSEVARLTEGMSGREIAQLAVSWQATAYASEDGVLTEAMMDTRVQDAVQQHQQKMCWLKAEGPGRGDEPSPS
Chain of ERP44 (human) (Q9BS26 30-406 limits assumed): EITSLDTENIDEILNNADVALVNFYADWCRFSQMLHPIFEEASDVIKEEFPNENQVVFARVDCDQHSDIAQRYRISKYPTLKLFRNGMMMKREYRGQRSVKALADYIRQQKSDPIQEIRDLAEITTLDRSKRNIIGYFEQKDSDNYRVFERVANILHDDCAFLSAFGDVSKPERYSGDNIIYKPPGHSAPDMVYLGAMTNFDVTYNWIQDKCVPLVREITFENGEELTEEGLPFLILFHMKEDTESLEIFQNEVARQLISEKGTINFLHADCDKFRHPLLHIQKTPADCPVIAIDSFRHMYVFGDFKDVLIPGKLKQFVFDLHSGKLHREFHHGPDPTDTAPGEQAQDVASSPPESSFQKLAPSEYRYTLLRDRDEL
Chain of ACSL3 (human) (O95573 whole entry): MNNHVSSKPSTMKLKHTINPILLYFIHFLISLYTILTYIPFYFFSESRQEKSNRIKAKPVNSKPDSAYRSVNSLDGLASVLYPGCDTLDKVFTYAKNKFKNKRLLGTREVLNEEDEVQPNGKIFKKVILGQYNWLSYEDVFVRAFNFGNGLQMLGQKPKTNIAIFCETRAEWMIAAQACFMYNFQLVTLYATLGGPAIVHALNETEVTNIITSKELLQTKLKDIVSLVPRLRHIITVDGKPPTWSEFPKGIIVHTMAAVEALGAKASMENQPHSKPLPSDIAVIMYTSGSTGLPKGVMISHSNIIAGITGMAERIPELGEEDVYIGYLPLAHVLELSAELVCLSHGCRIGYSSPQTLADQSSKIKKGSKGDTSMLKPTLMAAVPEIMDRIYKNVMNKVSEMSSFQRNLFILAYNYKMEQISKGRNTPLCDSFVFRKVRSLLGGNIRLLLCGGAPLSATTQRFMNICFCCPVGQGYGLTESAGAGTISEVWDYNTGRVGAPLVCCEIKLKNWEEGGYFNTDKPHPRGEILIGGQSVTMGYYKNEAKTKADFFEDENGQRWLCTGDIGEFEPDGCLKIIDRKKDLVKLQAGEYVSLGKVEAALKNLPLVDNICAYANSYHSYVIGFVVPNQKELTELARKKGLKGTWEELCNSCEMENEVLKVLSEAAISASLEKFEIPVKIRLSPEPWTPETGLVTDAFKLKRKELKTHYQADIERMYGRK

Substance “IgG control (Millipore Sigma 12-371) (antibody)” has a co-IP mass spectrometry count (KPNB1 (human) [1]) of 0, a co-IP mass spectrometry count (ERP44 (human) [2]) of 0 and a co-IP mass spectrometry count (TRAFD1 (human) [3]) of 0. It also gave a co-IP mass spectrometry count (IPO7 (human) [4]) of 0, a co-IP mass spectrometry count (RCN1 (human)) of 0 and a co-IP mass spectrometry count (ATAD3A (human) [5]) of 0. It also gave a co-IP mass spectrometry count (PGAM5 (human)) of 0, a co-IP mass spectrometry count (LARP4 (human)) of 0 and a co-IP mass spectrometry count (AIFM1 (human) [6]) of 0. The co-IP mass spectrometry count (PDIA4 (human)) was 0, the co-IP mass spectrometry count (PSMB6 (human)) was 0 and the co-IP mass spectrometry count (TUBA1C (human)) was 8. The co-IP mass spectrometry count (PSMB4 (human)) was 0, the co-IP mass spectrometry count (HDGFL2 (human)) was 0 and the co-IP mass spectrometry count (KTN1 (human) [7]) was 0. The co-IP mass spectrometry count (ACSL3 (human) [8]) was 0, the co-IP mass spectrometry count (ZRANB2 (human)) was 0 and the co-IP mass spectrometry count (UBTF (human) [9]) was 0. The co-IP mass spectrometry count (RPL15 (human) [10]) was 0, the co-IP mass spectrometry count (NTPCR (human)) was 0 and the co-IP mass spectrometry count (KPNB1 (human) [11]) was 0. It also gave a co-IP mass spectrometry count (ERP44 (human) [12]) of 0, a co-IP mass spectrometry count (TRAFD1 (human) [13]) of 0 and a co-IP mass spectrometry count (IPO7 (human) [14]) of 0. For the same substance, the co-IP mass spectrometry count (SLC25A22 (human)) was 0, the co-IP mass spectrometry count (H1FX (human)) was 0 and the co-IP mass spectrometry count (ATAD3A (human) [15]) was 0. It also gave a co-IP mass spectrometry count (FBXO6 (human)) of 0, a co-IP mass spectrometry count (AIFM1 (human) [16]) of 0 and a co-IP mass spectrometry count (EEF2 (human)) of 0. It also gave a co-IP mass spectrometry count (ABCD1 (human)) of 0, a co-IP mass spectrometry count (KTN1 (human) [17]) of 0 and a co-IP mass spectrometry count (ACSL3 (human) [18]) of 0. It also gave a co-IP mass spectrometry count (IFI16 (human)) of 0, a co-IP mass spectrometry count (LDHA (human)) of 0 and a co-IP mass spectrometry count (PSMC2 (human)) of 0. The co-IP mass spectrometry count (RPS6 (human)) was 2, the co-IP mass spectrometry count (UBTF (human) [19]) was 0 and the co-IP mass spectrometry count (RPL15 (human) [20]) was 2.
